Assay results: the supplement of paper PMC7877785
± gives the uncertainty stated by the source.

Test: self-splicing fitness, log relative to wild type (ln ratio); higher = more splicing; Tetrahymena group I intron in knt gene, E. coli kanamycin selection, DiMSum; sequences stand for … in CUCUCU…GGAGGGAAAAGUUAUCAGGCAUGCACCUGGUAGCUAGUCUUUAAACCAAUAGAUUGCAUCGGUUUAAAAGGCAAGACCGUCAAAUUGCGGGAAAGGGGUCAACAGCCGUUCAGUACCAAGUCUCAGGGGAAACUUUGAGAUGGCCUUGCAAAGGGUAUGGUAAUAAGCUGACGGACAUGGUCCUAACCACGCAGCCAAGUCCUAAGUCAACAGAUCUUCUGUUGAUAUGGAUGCAGUUCACAGACUAAAUGUCGGUCGGGGAAGAUGUAUUCUUCUCAUAAGAUAUAGUCGGACCUCUCCUUAAUGGGAGCUAGCGGAUGAAGUGAUGCAACACUGGAGCCGCUGGGAACUAAUUUGUAUGCGAAAGUAUAUUGAUUAGUUUUGGAGUACUCGUGGUCG
Method in brief: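 The eight P1ex-region nucleotides of an intron in the knt kanamycin-resistance gene on pET-22b(+) were all randomised and the library put into E. coli BL21(DE3). Six replicate transformations were grown overnight at 37°C or 30°C on LB agar with or without 25 μg/mL kanamycin, together with 100 μg/mL carbenicillin, 50 μM IPTG and 0.2% rhamnose. Colonies were pooled and amplicon-sequenced on an Illumina HiSeq 2500. Fitness from DiMSum is the error-weighted combination of wild-type-normalised replicate fold changes, kanamycin over none.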

Sequence | self-splicing fitness (ln) (30 °C) | self-splicing fitness (ln) (37 °C)
UAGCAGCAAUAUUACGUGGU | -3.87 ± 0.2 | -2.79 ± 0.16
UAGGAGCAAUAUUACGAAUC | – | -2.02 ± 0.26
UAGGAGCAAUAUUACGACUU | -0.556 ± 0.14 | 0.485 ± 0.19
UAGGAGCAAUAUUACGAGCC | -3.1 ± 0.3 | -2.82 ± 0.47
UAGGAGCAAUAUUACGAGCG | -3.58 ± 0.4 | -1.31 ± 0.35
UAGGAGCAAUAUUACGAUUU | -2.44 ± 0.15 | -1.4 ± 0.24
UAGGAGCAAUAUUACGCUUA | -1.49 ± 0.18 | -0.834 ± 0.27
UAGGAGCAAUAUUACGGCAA | – | -1.07 ± 0.2
UAGGAGCAAUAUUACGGCGA | -1.51 ± 0.17 | -1.46 ± 0.18
UAGGAGCAAUAUUACGGGUU | -4.52 ± 0.42 | -2.56 ± 0.27
UAGGAGCAAUAUUACGUAGA | -1.5 ± 0.2 | -1.06 ± 0.16
UAGGAGCAAUAUUACGUCCG | -0.262 ± 0.28 | 1.13 ± 0.28
UAGGAGCAAUAUUACGUGGU | -3.87 ± 0.29 | -2.26 ± 0.24
UAGGAGCAAUAUUACGUGUG | -2.86 ± 0.15 | -1.72 ± 0.15
UAGGAGCAAUAUUACGUUAA | -1.4 ± 0.28 | -2.55 ± 0.39
UAGGAGCAAUAUUACGUUGU | -3.31 ± 0.26 | -2.35 ± 0.23
UAGUAGCAAUAUUACGAAAC | – | -2.13 ± 0.45
UAGUAGCAAUAUUACGAAGU | -2.42 ± 0.24 | -2.07 ± 0.33
UAGUAGCAAUAUUACGAAUA | -1.33 ± 0.23 | -0.977 ± 0.21
UAGUAGCAAUAUUACGAAUC | -2.9 ± 0.48 | –
UAGUAGCAAUAUUACGAAUU | -4.36 ± 0.36 | -2.27 ± 0.27
UAGUAGCAAUAUUACGACGA | -0.284 ± 0.18 | 0.242 ± 0.16
UAGUAGCAAUAUUACGACGU | -1.23 ± 0.11 | -0.175 ± 0.095
UAGUAGCAAUAUUACGAGAC | – | -1.37 ± 0.39
UAGUAGCAAUAUUACGAGCG | -0.586 ± 0.095 | 0.438 ± 0.12

Sequence | self-splicing fitness (ln) (30 °C) | self-splicing fitness (ln) (37 °C)
UAGUAGCAAUAUUACGAUAA | -3.02 ± 0.36 | -1.18 ± 0.2
UAGUAGCAAUAUUACGAUGG | -2.93 ± 0.12 | -1.54 ± 0.11
UAGUAGCAAUAUUACGAUUU | -1.45 ± 0.1 | -0.988 ± 0.12
UAGUAGCAAUAUUACGCAAG | -2.78 ± 0.45 | -1.25 ± 0.24
UAGUAGCAAUAUUACGCAUU | -3.97 ± 0.21 | -1.52 ± 0.14
UAGUAGCAAUAUUACGCCGG | -1.64 ± 0.21 | -0.466 ± 0.24
UAGUAGCAAUAUUACGCGGA | -3.56 ± 0.47 | -0.643 ± 0.17
UAGUAGCAAUAUUACGCGUC | -3.22 ± 0.38 | -1.88 ± 0.36
UAGUAGCAAUAUUACGCUUG | -0.659 ± 0.092 | -0.506 ± 0.13
UAGUAGCAAUAUUACGGAAC | -2.97 ± 0.3 | -3.42 ± 0.42
UAGUAGCAAUAUUACGGGAA | -2.79 ± 0.32 | -1.65 ± 0.29
UAGUAGCAAUAUUACGGUCC | – | -1.53 ± 0.35
UAGUAGCAAUAUUACGUACA | -1.05 ± 0.064 | -0.269 ± 0.081
UAGUAGCAAUAUUACGUAGC | -3.52 ± 0.22 | -1.37 ± 0.2
UAGUAGCAAUAUUACGUCAU | -3.57 ± 0.37 | –
UAGUAGCAAUAUUACGUGAU | -3.84 ± 0.33 | -2.18 ± 0.28
UAGUAGCAAUAUUACGUGGG | -3.26 ± 0.25 | -1.41 ± 0.17
UAGUAGCAAUAUUACGUGUA | -3.16 ± 0.21 | -0.527 ± 0.12
UAGUAGCAAUAUUACGUUAG | -1.52 ± 0.17 | -1.97 ± 0.21
UAGUAGCAAUAUUACGUUCA | -0.66 ± 0.15 | 0.327 ± 0.15
UAGUAGCAAUAUUACGUUCC | -4.21 ± 0.35 | -0.984 ± 0.19
UAGUAGCAAUAUUACGUUGU | -4.09 ± 0.25 | -2.13 ± 0.14
UAGUAGCAAUAUUACGUUUU | -3.14 ± 0.14 | -2.27 ± 0.16
UAUAAGCAAUAUUACGAAGA | -2.72 ± 0.24 | -1.66 ± 0.16
UAUAAGCAAUAUUACGACAG | -0.587 ± 0.11 | -0.0617 ± 0.15

Sequence | self-splicing fitness (ln) (30 °C) | self-splicing fitness (ln) (37 °C)
UAUAAGCAAUAUUACGACCU | 0.317 ± 0.2 | -0.146 ± 0.23
UAUAAGCAAUAUUACGACUA | 0.0842 ± 0.075 | 0.29 ± 0.094
UAUAAGCAAUAUUACGAGUC | -1.69 ± 0.32 | –
UAUAAGCAAUAUUACGAGUG | 0.0329 ± 0.08 | -0.16 ± 0.099
UAUAAGCAAUAUUACGCACU | 0.11 ± 0.12 | -0.923 ± 0.12
UAUAAGCAAUAUUACGCCCA | -0.492 ± 0.13 | -0.495 ± 0.2
UAUAAGCAAUAUUACGCCCG | 0.0737 ± 0.21 | 0.591 ± 0.3
UAUAAGCAAUAUUACGCCGU | -1.41 ± 0.49 | –
UAUAAGCAAUAUUACGCGAA | -1.09 ± 0.15 | -0.98 ± 0.16
UAUAAGCAAUAUUACGCGGG | -2.17 ± 0.14 | -1.89 ± 0.18
UAUAAGCAAUAUUACGCUGG | -1.44 ± 0.13 | -0.93 ± 0.18
UAUAAGCAAUAUUACGCUUA | -1.88 ± 0.27 | -0.653 ± 0.2
UAUAAGCAAUAUUACGGGCU | -2.64 ± 0.31 | -1.71 ± 0.31
UAUAAGCAAUAUUACGGGUU | -3.04 ± 0.16 | -3.53 ± 0.23
UAUAAGCAAUAUUACGGUAG | -1.59 ± 0.077 | -0.912 ± 0.095
UAUAAGCAAUAUUACGGUGG | -1.67 ± 0.13 | -0.746 ± 0.13
UAUAAGCAAUAUUACGUAUG | -1.31 ± 0.091 | -0.577 ± 0.12
UAUAAGCAAUAUUACGUCGC | -3.29 ± 0.28 | -2.24 ± 0.37
UAUAAGCAAUAUUACGUGUA | -1.48 ± 0.1 | -0.896 ± 0.1
UAUCAGCAAUAUUACGACAU | -0.823 ± 0.012 | -0.0787 ± 0.032
UAUCAGCAAUAUUACGAGGC | – | -2.77 ± 0.37
UAUCAGCAAUAUUACGAUAC | -3.07 ± 0.28 | -1.85 ± 0.25
UAUCAGCAAUAUUACGAUAU | -2.41 ± 0.11 | -1.64 ± 0.13
UAUCAGCAAUAUUACGCAAG | -0.949 ± 0.074 | 0.273 ± 0.097
UAUCAGCAAUAUUACGCACG | -0.349 ± 0.11 | 0.232 ± 0.14

Sequence | self-splicing fitness (ln) (30 °C) | self-splicing fitness (ln) (37 °C)
UAUCAGCAAUAUUACGCAGA | -1.57 ± 0.15 | -1.03 ± 0.1
UAUCAGCAAUAUUACGCGAG | -0.712 ± 0.057 | -0.298 ± 0.071
UAUCAGCAAUAUUACGCGGG | -0.936 ± 0.076 | -1.14 ± 0.098
UAUCAGCAAUAUUACGCGUU | -1.7 ± 0.13 | -1 ± 0.17
UAUCAGCAAUAUUACGCUCU | 0.148 ± 0.12 | 0.416 ± 0.13
UAUCAGCAAUAUUACGCUGG | -3.15 ± 0.25 | -1.62 ± 0.21
UAUCAGCAAUAUUACGGAUA | -2.17 ± 0.24 | -1.85 ± 0.31
UAUCAGCAAUAUUACGGCGC | -2.69 ± 0.18 | -1.12 ± 0.21
UAUCAGCAAUAUUACGGCGG | -0.918 ± 0.086 | 0.373 ± 0.093
UAUCAGCAAUAUUACGGGAU | -3.78 ± 0.24 | -1.72 ± 0.14
UAUCAGCAAUAUUACGGGCA | -0.0174 ± 0.066 | 0.193 ± 0.084
UAUCAGCAAUAUUACGGGGA | -1.76 ± 0.094 | -0.643 ± 0.1
UAUCAGCAAUAUUACGGGGC | -2.85 ± 0.18 | -2.59 ± 0.19
UAUCAGCAAUAUUACGGGGG | -1.51 ± 0.092 | -1.11 ± 0.14
UAUCAGCAAUAUUACGUAGC | -2.63 ± 0.16 | -1.42 ± 0.2
UAUCAGCAAUAUUACGUAUU | -0.834 ± 0.078 | -0.815 ± 0.094
UAUCAGCAAUAUUACGUCAC | -4 ± 0.31 | -1.83 ± 0.3
UAUCAGCAAUAUUACGUCCG | -0.361 ± 0.11 | 0.121 ± 0.14
UAUCAGCAAUAUUACGUCGC | – | -2.03 ± 0.33
UAUCAGCAAUAUUACGUCUA | -0.033 ± 0.078 | 0.747 ± 0.1
UAUCAGCAAUAUUACGUGUG | -0.333 ± 0.058 | 0.407 ± 0.076
UAUGAGCAAUAUUACGAAAU | -3.68 ± 0.37 | –
UAUGAGCAAUAUUACGAAUU | -2.36 ± 0.33 | -1.73 ± 0.32
UAUGAGCAAUAUUACGACGA | -1.87 ± 0.36 | -1.62 ± 0.34
